Test results from patent US9487561B2, “Biologically active complex and its preparation” (HAMLET PHARMA AB, priority 2010, dated 2016).

Legend:
[1] = system: healthy, differentiated pediatric kidney cells; assay: extended microarray analysis (Illumina HumanHT-12); assay type: cell-based, human
Procedure: For the extended microarray analysis, gene expression was assessed by whole genome Illumina microarrays (HumanHT-12 Expression BeadChip). Data was normalized using cross-correlation (Chua et al., 2006 Nucleic Acids Research 34: e38). Genes with a log 2 fold change ≧1.2 in tumor cells and ≧2.0 in healthy, differentiated cells at any time point were regarded as differentially expressed (Benjamini-Hochberg adjusted p-value <0.05).
To examine the molecular basis of the difference in HAMLET susceptibility between carcinoma cells and healthy, differentiated cells, transcriptional profiles were compared. […] These cytokines were not secreted by the carcinoma cells.

[2] = system: bladder cancer; details: mouse, in vivo; cited from earlier work
[3] = system: glioblastoma xenograft; details: rat, in vivo; cited from earlier work
[4] = system: bladder cancer; details: local instillations; cited from earlier work
[5] = system: p38, HSP27 in healthy, differentiated kidney cells; assay: MAPK phosphorylation in healthy cells; assay type: cell-based, human

B1: HAMLET (protein, UniProt P00709 20-142, looked up)
Alpha-lactalbumin: KQFTKCELSQLLKDIDGYGGIALPELICTMFHTSGYDTQAIVENNESTEYGLFQISNKLWCKSSQVPQSRNICDISCDKFLDDDITDDIMCAKKILDIKGIDYWLAHKALCTEKLEQWLCEKL
modifications: oleic acid complex
**Q.** With B1 as the molecule, how does the “number of genes responding to HAMLET” value [1] read?
**A.** 2064 genes

**Q.** And the “therapeutic efficacy in bladder cancer” value [2]?
**A.** Therapeutic efficacy

**Q.** What about the “cell death in healthy brain tissue” value [3] of the same molecule?
**A.** without evidence of cell death in healthy brain tissue

**Q.** And the “tumor progression and survival” value [3]?
**A.** delayed tumor progression and led to increased survival

**Q.** What about the “death of tumor cells vs healthy tissue” value [4] of the same molecule?
**A.** caused rapid death of tumor cells but not of healthy tissue surrounding the tumor

**Q.** And the “phosphorylation of p38, its isoforms, or HSP27” value [5]?
**A.** no phosphorylation of p38, its isoforms, or HSP27
